Reference: patent US20190263863A1 (GENOIMMUNE THERAPEUTICS, published 2019)

Target: T1, HLA-A0201 on the surface of T2 cells (human)
T1 construct: surface HLA-A*02:01 is detected with an anti-HLA-A*02:01 FITC monoclonal antibody after loading with peptide
Assay: T2 cell peptide loading assay, 100 uM peptide, anti-HLA-A*02:01 FITC, flow cytometry
Experimental: After centrifugation at 200 g for 5 minutes for cell collection, the collected cells were washed with phosphate buffer saline (PBS) buffer twice, before incubated with anti-HLA-A*02:01 FITC monoclonal antibody at 4° C. for 30 minutes. The mean fluorescence intensity of cells was then detected and analyzed by the flow cytometry (BD FACSJazz™) and its software.

B1: wild-type polypeptide FLLGNLSFV (SEQ ID NO:5) (peptide)
peptide: FLLGNLSFV
notes: Made by solid phase peptide synthesis, HPLC purity >90%
FI (fluorescence index): 2.27
Mean fluorescence intensity: 724

B2: mutant polypeptide's variant FMLGNLFFV (SEQ ID NO:3) (peptide)
peptide: FMLGNLFFV
notes: as for B1
FI (fluorescence index): 2.13
Mean fluorescence intensity: 694

B3: mutant polypeptide's variant FLLGNLFFL (SEQ ID NO:2) (peptide)
peptide: FLLGNLFFL
notes: as for B1
FI (fluorescence index): 2.17
Mean fluorescence intensity: 702

B4: mutant polypeptide FLLGNLFFV (SEQ ID NO:1) (peptide)
peptide: FLLGNLFFV
notes: Made by solid phase peptide synthesis, HPLC purity >90%; also called OR4K5 S67F mutant polypeptide
FI (fluorescence index): 2.22
Mean fluorescence intensity: 713

B5: mutant polypeptide's variant FMLGNLFFL (SEQ ID NO:4) (peptide)
peptide: FMLGNLFFL
notes: as for B1
FI (fluorescence index): 2.1
Mean fluorescence intensity: 686
